Laboratory results taken from US20070031956.

System: S6 peptide (RRRLSSLRA)

Chain of Full-length human Pim-1 kinase (residues M1-K313) with N-terminal HexaHis tag and thrombin cleavage site (chain, as listed by the source): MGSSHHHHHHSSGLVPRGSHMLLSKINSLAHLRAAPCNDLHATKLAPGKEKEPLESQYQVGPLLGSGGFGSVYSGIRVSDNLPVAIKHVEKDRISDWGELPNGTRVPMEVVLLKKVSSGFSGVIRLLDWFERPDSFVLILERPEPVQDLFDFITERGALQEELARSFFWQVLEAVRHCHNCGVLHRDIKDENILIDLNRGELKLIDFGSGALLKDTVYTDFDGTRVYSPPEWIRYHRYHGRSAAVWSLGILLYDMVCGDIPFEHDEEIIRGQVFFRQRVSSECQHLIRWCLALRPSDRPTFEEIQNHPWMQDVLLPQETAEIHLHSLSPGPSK

Substance: Full-length human Pim-1 kinase (residues M1-K313) with N-terminal HexaHis tag and thrombin cleavage site
- peptide Km (coupled-enzyme kinase assay): peptide Km=51±2 µM
